# According to IntAct's records for PubMed 10466729:
# B1: Phytochrome B (Arabidopsis thaliana (Mouse-ear cress)), P14713 (parent)
# chain: MVSGVGGSGGGRGGGRGGEEEPSSSHTPNNRRGGEQAQSSGTKSLRPRSNTESMSKAIQQYTVDARLHAVFEQSGESGKSFDYSQSLKTTTYGSSVPEQQITAYLSRIQRGGYIQPFGCMIAVDESSFRIIGYSENAREMLGIMPQSVPTLEKPEILAMGTDVRSLFTSSSSILLERAFVAREITLLNPVWIHSKNTGKPFYAILHRIDVGVVIDLEPARTEDPALSIAGAVQSQKLAVRAISQLQALPGGDIKLLCDTVVESVRDLTGYDRVMVYKFHEDEHGEVVAESKRDDLEPYIGLHYPATDIPQASRFLFKQNRVRMIVDCNATPVLVVQDDRLTQSMCLVGSTLRAPHGCHSQYMANMGSIASLAMAVIINGNEDDGSNVASGRSSMRLWGLVVCHHTSSRCIPFPLRYACEFLMQAFGLQLNMELQLALQMSEKRVLRTQTLLCDMLLRDSPAGIVTQSPSIMDLVKCDGAAFLYHGKYYPLGVAPSEVQIKDVVEWLLANHADSTGLSTDSLGDAGYPGAAALGDAVCGMAVAYITKRDFLFWFRSHTAKEIKWGGAKHHPEDKDDGQRMHPRSSFQAFLEVVKSRSQPWETAEMDAIHSLQLILRDSFKESEAAMNSKVVDGVVQPCRDMAGEQGIDELGAVAREMVRLIETATVPIFAVDAGGCINGWNAKIAELTGLSVEEAMGKSLVSDLIYKENEATVNKLLSRALRGDEEKNVEVKLKTFSPELQGKAVFVVVNACSSKDYLNNIVGVCFVGQDVTSQKIVMDKFINIQGDYKAIVHSPNPLIPPIFAADENTCCLEWNMAMEKLTGWSRSEVIGKMIVGEVFGSCCMLKGPDALTKFMIVLHNAIGGQDTDKFPFPFFDRNGKFVQALLTANKRVSLEGKVIGAFCFLQIPSPELQQALAVQRRQDTECFTKAKELAYICQVIKNPLSGMRFANSLLEATDLNEDQKQLLETSVSCEKQISRIVGDMDLESIEDGSFVLKREEFFLGSVINAIVSQAMFLLRDRGLQLIRDIPEEIKSIEVFGDQIRIQQLLAEFLLSIIRYAPSQEWVEIHLSQLSKQMADGFAAIRTEFRMACPGEGLPPELVRDMFHSSRWTSPEGLGLSVCRKILKLMNGEVQYIRESERSYFLIILELPVPRKRPLSTASGSGDMMLMMPY
# partner: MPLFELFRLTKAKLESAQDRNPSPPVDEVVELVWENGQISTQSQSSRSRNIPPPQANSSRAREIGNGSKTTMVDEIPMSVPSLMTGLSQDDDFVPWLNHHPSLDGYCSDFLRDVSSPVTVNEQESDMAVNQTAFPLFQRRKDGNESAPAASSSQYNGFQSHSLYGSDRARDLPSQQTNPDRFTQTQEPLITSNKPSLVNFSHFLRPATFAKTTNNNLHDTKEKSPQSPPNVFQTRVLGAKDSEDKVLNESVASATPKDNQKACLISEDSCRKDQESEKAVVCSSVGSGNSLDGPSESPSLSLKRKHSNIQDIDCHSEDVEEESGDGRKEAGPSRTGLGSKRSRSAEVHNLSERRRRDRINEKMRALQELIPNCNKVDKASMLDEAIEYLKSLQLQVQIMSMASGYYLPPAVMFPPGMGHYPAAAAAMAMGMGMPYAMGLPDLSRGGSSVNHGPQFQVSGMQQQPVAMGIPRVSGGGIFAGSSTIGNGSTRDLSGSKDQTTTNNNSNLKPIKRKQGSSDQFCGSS
# Variants of: B1
# Conditions: with pif3_arath PIF3, O80536
row,Variant,effect of a mutation on the interaction
1,A750V,decreasing interaction
2,E812K,decreasing interaction
3,G767R,decreasing interaction
